Assay results reported in PMC5524880, “Mechanisms and Specificity of Phenazine Biosynthesis Protein PhzF” (Scientific Reports, 2017).

Tests used:
[1] = substrate: N[C@H]1C(C(=O)O)=CC=C[C@@H]1O; experiment: purified protein; assay type: biochemical, Pseudomonas fluorescens; conditions: 50 mM sodium phosphate pH 7.5, 1% DMSO, 25 °C
[2] = substrate: CCOC1C=CC=C(C(=O)O)C1N; experiment: purified protein; assay type: biochemical, Pseudomonas fluorescens; conditions: 50 mM sodium phosphate pH 7.5, 1% DMSO, 25 °C, 1000 nM PhzF, racemic substrate
[3] = 200 nM PhzF, labelled compound (deuterated at C3)

B1: PhzF (Pseudomonas fluorescens) (protein)
chain: MHNYVIIDAFASVPLEGNPVAVFFDADDLPPAQMQRIAREMNLSESTFVLKPRNGGDALIRIFTPVNELPFAGHPLLGTAIALGAHTDNHRLYLETQMGTIAFELERQNGSVIAASMDQPIPTWTALGRDAELLKALGISDSTFPIEIYHNGPRHVFVGLPSIDALSALHPDHRALSNFHDMAINCFAGAGRRWRSRMFSPAYGVVEDAATGSAAGPLAIHLARHGQIEFGQPVEILQGVEIGRPSLMFAKAEGRAEQLTRVEVSGNGVTFGRGTIVL
notes: N-terminal His6 tag, expressed in E. coli, homodimer
Km ([1]; 40 nM PhzF dimer): 517 ± 57 µM
kcat ([1]; 40 nM PhzF dimer): 3.23 ± 0.19 s⁻¹
Km [1, 3]: 311 ± 14 µM
kcat [1, 3]: 0.34 ± 0.01 s⁻¹
Km [2]: 1842 ± 355 µM
kcat [2]: 0.12 ± 0.02 s⁻¹
